# Data taken from patent publication US20230203161A1 (TENEOBIO, published 2023).
# Positions count from the first letter of the chain named.
# B1: monoparatopic PSMA×CD3 bispecific antibody 346181×CD3 (bispecific antibody)
# chain 1: QLQLQESGPGLVKPSETLSLTCTVSGGSISSSNYFWGWIRQSPGKGLEWIGSIDYSGYTYYNPSLKSRVTISVDTSKNQFSLKLSSVTAADTAVYNCARHKAATADFDYRGQGTLVTVSS
# chain 2: EVQLVESGGGLVQPGRSLRLSCAASGFTFDDYAMHWVRQAPGKGLEWVSGISWNSGSIGYADSVKGRFTISRDNAKNSLYLQMNSLRAEDTALYYCAKDSRGYGDYRLGGAYWGQGTLVTVSS
# chain 3: not shown
# B2: biparatopic anti-PSMA×CD3 antibody 350123×CD3 (bispecific antibody)
# chain 1: QLQLQESGPGLVKPSETLSLTCTVSGGSISSSNYFWGWIRQSPGKGLEWIGSIDYSGYTYYNPSLKSRVTISVDTSKNQFSLKLSSVTAADTAVYNCARHKAATADFDYRGQGTLVTVSSGGGGSGGGGSQVQLVESGGGVVQPGRSLRLSCAASGFSFSRYGMHWVRQAPGKGLEGVAVIWYDGSNRYYADSVKGRFTISRDNSKNTLYLQMNSLRAEDTAVYYCAREPRIGYYYESSGYYSLDYRGQGTLVTVSS
# chain 2: B1 chain 2
# chain 3: not shown
# B3: anti-PSMA heavy-chain antibody (HCAb) clone ID 325920 (antibody, V domains shown)
# VH: B1 chain 1 with N33S, F35Y, S42P, K66Q
# notes: Heavy chain-only antibody (UniAb)
# B4: anti-PSMA heavy-chain antibody (HCAb) clone ID 326109 (antibody, V domains shown)
# VH: QLQLQESGPGLVKPSETLSLTCTVSGGSISSNSYYWGWIRQSPGKGLEWLGSIYDSGSTHYNPSLKSRVIISGDTSKNQFSLKLSSVTAADTAVYYCARHKAATADFDYRGQGTLVTVSS
# notes: as for B3
# B5: anti-PSMA heavy-chain antibody (HCAb) clone ID 346181 (antibody, V domains shown)
# VH: B1 chain 1
# notes: as for B3
# B6: anti-PSMA heavy-chain antibody (HCAb) clone ID 346165 (antibody, V domains shown)
# VH: B1 chain 1 with N33S, F35Y, S42P, I53V, K66Q
# notes: as for B3
# B7: anti-PSMA heavy-chain antibody (HCAb) clone ID 345480 (antibody, V domains shown)
# VH: QVQLVESGGGVVQPGRSLRLSCAASGFSFSSYGMHWVRQAPGKGLEWVAVIWYDGSNRYYADSVKGRFTISRDNSKNTLYLQMNSLRAEDTAVYYCAREPRIGYYYESSGYYSLDYRGQGTLVTVSS
# notes: as for B3
# B8: anti-PSMA heavy-chain antibody (HCAb) clone ID 345505 (antibody, V domains shown)
# VH: B7 VH with S28T, S30I, W47G
# notes: as for B3
# B9: anti-PSMA heavy-chain antibody (HCAb) clone ID 345509 (antibody, V domains shown)
# VH: B7 VH with V11L, R16G, W47G, R58K, L79M
# notes: as for B3
# B10: anti-PSMA heavy-chain antibody (HCAb) clone ID 326087 (antibody, V domains shown)
# VH: B7 VH with S28I, S30R, L45P, R58K, E107D, Y112D
# notes: as for B3
# B11: anti-PSMA heavy-chain antibody (HCAb) clone ID 345438 (antibody, V domains shown)
# VH: B7 VH with L45P, R58K
# notes: as for B3
# B12: anti-PSMA heavy-chain antibody (HCAb) clone ID 345461 (antibody, V domains shown)
# VH: B7 VH with S30T, W47G
# notes: as for B3
# B13: anti-PSMA heavy-chain antibody (HCAb) clone ID 345490 (antibody, V domains shown)
# VH: B7 VH with V11L, Q13K, R16G, W47G
# notes: as for B3
# B14: anti-PSMA heavy-chain antibody (HCAb) clone ID 345463 (antibody, V domains shown)
# VH: B7 VH with S28I, S30R, L45P, R58K
# notes: as for B3
# B15: anti-PSMA heavy-chain antibody (HCAb) clone ID 345485 (antibody, V domains shown)
# VH: B7 VH with S30R, R58K, L79M
# notes: as for B3
# B16: anti-PSMA heavy-chain antibody (HCAb) clone ID 345508 (antibody, V domains shown)
# VH: B7 VH with L45P
# notes: as for B3
# B17: anti-PSMA heavy-chain antibody (HCAb) clone ID 345421 (antibody, V domains shown)
# VH: B7 VH with G8V, W47G
# notes: as for B3
# B18: anti-PSMA heavy-chain antibody (HCAb) clone ID 345447 (antibody, V domains shown)
# VH: B7 VH with W47G, W52S
# notes: as for B3
# B19: anti-PSMA heavy-chain antibody (HCAb) clone ID 345443 (antibody, V domains shown)
# VH: B7 VH with W47G, Y80F
# notes: as for B3
# B20: anti-PSMA heavy-chain antibody (HCAb) clone ID 326084 (antibody, V domains shown)
# VH: B7 VH with W47G, E107D
# notes: as for B3
# B21: anti-PSMA heavy-chain antibody (HCAb) clone ID 326028 (antibody, V domains shown)
# VH: B7 VH with S30R, W52S, R58K, N74Y, E107D, Y112D
# notes: as for B3
# B22: anti-PSMA heavy-chain antibody (HCAb) clone ID 345444 (antibody, V domains shown)
# VH: B7 VH with S28T, W47G
# notes: as for B3
# B23: anti-PSMA heavy-chain antibody (HCAb) clone ID 325742 (antibody, V domains shown)
# VH: B7 VH with R58K, N74Y, Y112D
# notes: as for B3
# B24: anti-PSMA heavy-chain antibody (HCAb) clone ID 345510 (antibody, V domains shown)
# VH: B7 VH with R58K, L79M
# notes: as for B3
# B25: anti-PSMA heavy-chain antibody (HCAb) clone ID 345482 (antibody, V domains shown)
# VH: B7 VH with W47G, N74S
# notes: as for B3
# B26: anti-PSMA heavy-chain antibody (HCAb) clone ID 345493 (antibody, V domains shown)
# VH: B7 VH with S31R
# notes: as for B3
# B27: anti-PSMA heavy-chain antibody (HCAb) clone ID 326029 (antibody, V domains shown)
# VH: B7 VH with S31R, W52S, R58K, I102V, S108T
# notes: as for B3
# B28: anti-PSMA heavy-chain antibody (HCAb) clone ID 325836 (antibody, V domains shown)
# VH: B7 VH with S30R, R58K, N74Y, E107D, Y112D
# notes: as for B3
# B29: anti-PSMA heavy-chain antibody (HCAb) clone ID 326027 (antibody, V domains shown)
# VH: B7 VH with S30R, R58K, E107D, Y112D
# notes: as for B3
# B30: anti-PSMA heavy-chain antibody (HCAb) clone ID 345436 (antibody, V domains shown)
# VH: B7 VH with S31R, W47G, R58K
# notes: as for B3
# B31: anti-PSMA heavy-chain antibody (HCAb) clone ID 326116 (antibody, V domains shown)
# VH: B7 VH with S31R, W47G, W52S, R58K, N74Y, E107D, Y112D
# notes: as for B3
# B32: anti-PSMA heavy-chain antibody (HCAb) clone ID 345497 (antibody, V domains shown)
# VH: B7 VH with S31R, W47G
# notes: as for B3
# B33: anti-PSMA heavy-chain antibody (HCAb) clone ID 325867 (antibody, V domains shown)
# VH: B7 VH with S30R, R58K, N74Y, Y112D
# notes: as for B3
# Molecular target: T1, human Prostate Specific Membrane Antigen (PSMA) (human, UniProt Q04609 1-750)
# T1 construct: whole, on cells; also called Glutamate Carboxypeptidase II; FOLH1
# Assay: cell binding, flow cytometry, MDA-PCa-2b cells
# T1 sequence (Q04609 whole entry): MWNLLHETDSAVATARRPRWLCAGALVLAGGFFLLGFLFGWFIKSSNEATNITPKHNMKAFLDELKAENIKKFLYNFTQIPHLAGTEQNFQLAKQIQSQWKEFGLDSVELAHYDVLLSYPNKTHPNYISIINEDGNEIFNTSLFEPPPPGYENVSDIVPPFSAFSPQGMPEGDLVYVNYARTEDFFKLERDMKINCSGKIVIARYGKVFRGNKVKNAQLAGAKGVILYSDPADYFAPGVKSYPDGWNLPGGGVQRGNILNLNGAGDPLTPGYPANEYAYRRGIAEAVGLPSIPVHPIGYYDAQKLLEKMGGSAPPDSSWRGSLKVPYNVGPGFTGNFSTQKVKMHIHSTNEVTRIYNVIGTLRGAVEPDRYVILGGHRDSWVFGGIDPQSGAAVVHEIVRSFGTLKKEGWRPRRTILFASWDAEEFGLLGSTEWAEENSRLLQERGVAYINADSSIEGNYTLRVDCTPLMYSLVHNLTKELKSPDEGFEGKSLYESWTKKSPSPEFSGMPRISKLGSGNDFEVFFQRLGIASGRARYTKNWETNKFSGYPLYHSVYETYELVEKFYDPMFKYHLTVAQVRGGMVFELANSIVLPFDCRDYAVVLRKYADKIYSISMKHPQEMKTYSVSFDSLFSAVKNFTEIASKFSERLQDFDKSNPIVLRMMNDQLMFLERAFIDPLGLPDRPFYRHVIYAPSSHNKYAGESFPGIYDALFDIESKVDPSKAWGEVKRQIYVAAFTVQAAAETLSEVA
row,EC50 [nM],Binder
1,28,B1
2,2,B2

# Molecular target: T1, human Prostate Specific Membrane …
# Assay: cell binding, flow cytometry, LNCAP cells
row,EC50 [nM],Binder
1,17,B1
2,2,B2

# Molecular target: T1, human Prostate Specific Membrane …
# Assay: cell binding, flow cytometry, 22Rv1 cells
row,EC50 [nM],Binder
1,58,B1
2,3,B2

# Molecular target: T1, human Prostate Specific Membrane …
# Assay: flow cytometry on LNCaP cells
# Experimental: Briefly, 50,000 target cells were stained with a dilution series of purified UniAbs™ for 30 minutes at 4° C. Following incubation, the cells were washed twice with flow cytometry buffer (1×PBS, 1% BSA, 0.1% NaN₃) and stained with goat F(ab′)₂ anti-human IgG conjugated to R-phycoerythrin (PE) (Southern Biotech, cat. #2042-09) to detect cell-bound antibodies. After a 20-minute incubation at 4° C., the cells were washed twice with flow cytometry buffer and the mean fluorescence intensity (MFI) was measured by flow cytometry. The MFI of cells stained with secondary antibody alone were used for determination of background signal and binding of each antibody was converted to fold over background. […] In some experiments EC50 values were calculated using GraphPad Prism 7.
# Column 1 indicates the clone ID of the HCAb. Column 2 indicates binding to LNCaP cells measured as fold over the background MFI signal.
row,fold over background MFI [fold over background],Binder
1,282,B3
2,25,B4
3,264,B5
4,243,B6
5,47,B7
6,59,B8
7,37,B9
8,129,B10
9,13,B11
10,102,B12
11,80,B13
12,68,B14
13,71,B15
14,55,B16
15,22,B17
16,14,B18

row,fold over background MFI [fold over background],Binder
1,84,B19
2,125,B20
3,117,B21
4,23,B22
5,200,B23
6,13,B24
7,80,B25
8,101,B26
9,109,B27
10,163,B28
11,138,B29
12,87,B30
13,38,B31
14,112,B32
15,210,B33

# Molecular target: T1, human Prostate Specific Membrane …
# Assay: cell binding, flow cytometry, PC3-PSMA cells
row,EC50 [nM],Binder
1,30,B1
2,6,B2

# Molecular target: T1, human Prostate Specific Membrane …
# Assay: cell-based or functional assay
"IFNγ EC50, 22Rv1 cells [nM]","IFNγ EC50, LNCAP cells [nM]","IFNγ EC50, MDA-PCa-2b cells [nM]","IFNγ EC50, PC3-PSMA cells [nM]","IL-2 EC50, LNCAP cells [nM]","IL-2 EC50, MDA-PCa-2b cells [nM]","IL-2 EC50, PC3-PSMA cells [nM]",Binder,"Kill EC50, 22Rv1 cells, resting T-cells [nM]","Kill EC50, LNCAP cells, resting T-cells [nM]","Kill EC50, MDA-PCa-2b cells, resting T-cells [nM]"
174,63,116,10.1,575,38.5,4.1,B1,52.8,14.6,23.6
380,3.29,0.9,1.01,3.73,1.11,1.1,B2,0.42,0.84,0.41

# Same assay, conditions: not given
row,Binder,"Kill EC50, PC3-PSMA cells, resting T-cells [nM]"
1,B1,3.7
2,B2,0.4
